# Source: article PMC8910618, “Cognate DNA Recognition by Engrailed Homeodomain Involves A Conformational Change Controlled via An Electrostatic-Spring-Loaded Latch”
# T1: engrailed homeodomain (enHD) (UniProt P02836 456-509)
# T1 sequence: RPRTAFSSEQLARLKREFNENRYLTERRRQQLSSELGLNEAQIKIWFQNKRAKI
# B1: cognate DNA (same as X-ray structure) (dsDNA)
# DNA 1: TTTTGCCATGTAATTACCTAA
# DNA 2: ATTAGGTAATTACATGGCAAA
# Experiments:
# Conditions in all cases: protein: recombinant; tags: none (untagged, or SUMO/His tag cleaved by ULP1); 15N or 13C,15N labelled for NMR; 5' overhang 1 nt on each strand, 20 bp
# [1] = biological target: T1, engrailed homeodomain (enHD); test: NMR titration (1H-15N HSQC, A460 and A507); 300 mM NaCl, 20 mM acetate pH 4, 298 K; NMR: 200 uM enHD, 298 K, 5% D2O; 20 mM MES pH 6 + 25 mM NaCl; 20 mM acetate pH 4 + 300 or 700 mM NaCl; 25 mM phosphate pH 6.8 + 50 mM NaCl. CD: 15 uM enHD and DNA, 20 mM MES pH 6, 25 mM NaCl, room temperature
# [2] = biological target: T1, engrailed homeodomain (enHD); test: NMR titration (1H-15N HSQC, R456 side-chain NH); 700 mM NaCl, 20 mM acetate pH 4, 298 K; NMR: 200 uM enHD, 298 K, 5% D2O; 20 mM MES pH 6 + 25 mM NaCl; 20 mM acetate pH 4 + 300 or 700 mM NaCl; 25 mM phosphate pH 6.8 + 50 mM NaCl. CD: 15 uM enHD and DNA, 20 mM MES pH 6, 25 mM NaCl, room temperature
# [3] = biological target: T1, engrailed homeodomain (enHD); test: NMR titration (1H-15N HSQC, W501 and A460); 50 mM NaCl, 25 mM phosphate pH 6.8, 298 K; stated as sub-uM, too tight to evaluate Kd; NMR: 200 uM enHD, 298 K, 5% D2O; 20 mM MES pH 6 + 25 mM NaCl; 20 mM acetate pH 4 + 300 or 700 mM NaCl; 25 mM phosphate pH 6.8 + 50 mM NaCl. CD: 15 uM enHD and DNA, 20 mM MES pH 6, 25 mM NaCl, room temperature
binder,measurement,setting,value
B1,Kd,[1],95 ± 20 µM
same,Kd,[2],170 ± 2 µM
same,Kd,[3],< 1000 nM
